Laboratory results reported in PMC5642512.
Each block holds one substance with its values, some of them ahead of it.

How the values were obtained:
Nur77 [1] = target: Nur77 (UniProt P22736); experiment: co-IP of transfected tagged proteins; details: reference: wild-type Flag-Bcl-2
Nur77 [2] = target: Nur77 (UniProt P22736); experiment: co-IP anti-Flag (Nur77), anti-Myc (Bcl-2) blot; details: reference: wild-type Myc-Bcl-2; sites S87

binding against the reference (Nur77 [1]; sites S87): weaker
Substance: Bcl-2 (from UniProt P10415) Flag-Bcl-2/S87A

binding against the reference (Nur77 [1]; sites T56): weaker
Substance: Bcl-2 (from UniProt P10415) Flag-Bcl-2/T56A

binding against the reference (Nur77 [2]): lost
Substance: Bcl-2 (from UniProt P10415) Myc-Bcl-2/S87A
